Data on 1 molecule can be found in patent US8241627B2, “Modified polypeptides stabilized in a desired conformation and methods for producing same” (The Center for Blood Research, Inc., priority 2000, dated 2012).

Assay [1] addresses T1, ICAM-1 (Homo sapiens, UniProt P05362). Briefly: BIAcore binding of soluble αL I-domains to ICAM-1. The protocol:
Briefly, recombinant mutant αL I-domain stabilized in the open conformation (K287C/K294C), or recombinant wild-type αL I-domain from amino acid residue G128 to Y307, were cloned into pET11b (Novagen) and expressed in E. coli induced with 1 mM IPTG for 4 hours. The recombinant proteins were purified from inclusion bodies by solubilization of inclusion bodies in 6M guanidine HCl and were refolded by dilution in the presence of 0.1 mM Cu^2+/phenanthrolin to enhance formation of disulfide bonds. Protein was concentrated by ammonium sulfate precipitation, dialyzed, and purified over a monoQ ion-exchange column. […] The recombinant proteins were then purified by gel filtration and concentrated by Centriprep. For BIAcore™ analysis, recombinant ICAM-1, ICAM-2 and ICAM-3 Fc chimeras were immobilized on the BIAcore™ sensor chip by an amine-coupling method. Recombinant αL I-domains were flowed in, and BIAcore™ assays were performed with Tris-buffered saline supplemented with 1 mM MgCl2 or 2 mM EDTA, at a flow rate of 10 μl/minute at 25° C.
For orientation: Surface plasmon resonance follows binding to a sensor surface in real time, without labels.
Target sequence in this assay (P05362 28-480 limits assumed): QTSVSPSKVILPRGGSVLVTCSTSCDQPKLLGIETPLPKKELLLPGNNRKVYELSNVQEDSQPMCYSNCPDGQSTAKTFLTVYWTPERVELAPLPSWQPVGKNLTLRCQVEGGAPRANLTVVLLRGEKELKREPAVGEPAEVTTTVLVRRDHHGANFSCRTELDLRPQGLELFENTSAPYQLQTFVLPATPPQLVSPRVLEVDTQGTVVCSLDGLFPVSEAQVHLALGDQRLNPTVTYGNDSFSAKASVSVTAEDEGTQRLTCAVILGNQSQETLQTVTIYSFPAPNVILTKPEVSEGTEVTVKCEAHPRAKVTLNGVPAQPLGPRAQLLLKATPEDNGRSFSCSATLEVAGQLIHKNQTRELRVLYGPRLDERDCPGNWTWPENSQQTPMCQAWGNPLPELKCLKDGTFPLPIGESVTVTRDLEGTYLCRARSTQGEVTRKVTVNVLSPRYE

In assay [2] the test system is T-lymphocytes in peripheral lymph node high endothelial venules. Briefly: Intravital microscopy of lymphocyte behaviour in peripheral lymph node high endothelial venules. The assay is classed as in vivo. The following applies: mouse. The protocol:
Moreover, the ability of the open I-domain mutants to inhibit LFA-1 function in vivo was tested by visualizing microcirculation in the peripheral lymph node (LN) with intravital microscopy. Briefly, a small bolus (20-50 µl) of LN cell suspensions from […] mice were retrogradely injected through a femoral artery catheter and visualized in the subiliac LN by fluorescent epi-illumination from a video-triggered xenon arc stroboscope. After recording control […] cell behavior in the absence of 1-domain, the mouse was pretreated by intra-arterial injection of 1-domain (10 µg/g of weight) 5 minutes before T^GFP cell injection. All scenes were recorded on videotape and off-line analysis was done. The rolling fraction was calculated as percentage of rolling cells amount the total number of TGFβ cells that entered a venule. The sticking (firm adhesion) fraction was determined as the percentage of T^GFP cells becoming firmly adherent for >20 seconds in the number of T^GFP cells that rolled in a venule. Results were semi-quantitatively scored as follows: −: 0%, .+−.: 0-5%, +: 5-20%, ++: 20-40%, +++: 40-60%, ++++: 60-80%, +++++:80-100%.

Assay [3] has as its target T1, ICAM-1. As to the kind of experiment: Binding of LFA-1 or isolated I-domain transfectants to immobilized ICAM-1. The assay is classed as cell-based. Further details: ICAM-1 was purified from human tonsil; from tissue; host or cells: human tonsil. The protocol: Clones of the transfectants that expressed similar levels of cell surface LFA-1, as determined by flow cytometry using monoclonal antibody TS2/4 (FIG. 3B), were tested for their ability to bind to immobilized ICAM-1, as previously described (Lu, C and Springer, T A (1997) J Immunol 159:268-278).
Briefly, ICAM-1 was purified from human tonsil, and coated to 96-well plates as described previously (Lu, C and Springer T A, (1997) J Immunol 159:268-278). Cells were labeled with a florescence dye 2′,7′-bis-(carboxyethyl)-5(and-6)-carboxyfluorescein, acetoxymethyl ester (BCECF-AM), and resuspended to 1×10^6/ml in L15/FBS. 50 μl cell suspension was mixed in ICAM-1 coated wells with an equal volume of L15/FBS in the absence or presence of monoclonal antibody (CBRLFA-1/2, 10 μg/ml). Monoclonal antibodies were used at final concentration of 1:20 hybridoma supernatant, 1:200 ascites, or μg/ml purified IgG. For testing the effect of divalent cations, BCECF-AM-labeled cells were washed 2× with TS buffer, pH7.5 (20 mM Tris, pH 7.5, 150 mMNaCl) containing 5 mM EDTA, followed by 2 washes with TS buffer, pH7.5. Cells were then resuspended to 5×10^5/ml in the TS buffer, pH7.5 supplemented with 1 mM MgCl2/CaCl2, MgCl2, MnCl2 mM EDTA, and 100 μl cell suspension was added to ICAM-1 coated wells. After incubation at 37° C. for 30 minutes, unbound cells were washed off on a Microplate Autowasher (Bio-Tek Instruments, Winooski, Vt.). The fluorescence content of total input cells and the bound cells in each well was quantitated on a Fluorescent Concentration Analyzer (IDEXX, Westbrook, Me.). The bound cells were expressed as a percentage of total input cells per sample well.
For generating stable K562 transfectants that express the I-domain on the surface, 20 μg of SspI-linearized pcDNA3.1/Hygro(+) containing the sequences encoding the I domain and the PDGFR transmembrane domain was used to transfect K562 cells by electroporation as described above. Transfectants were selected for resistance to 100 μg/ml hygromycin B, and were further subcloned by cell sorting and limiting dilution; clones that expressed similar levels of surface wild-type and mutant I domain-PDGFR were selected for functional studies. Stable cell lines were maintained in RPMI medium 1640 supplemented with 10% FBS and 100 μg/ml hygromycin B. Cell surface expression of the isolated I-domains was determined by flow cytometry using antibody TS1/22 to the I-domain (FIG. 7). Two clones from each transfectant were selected and tested for binding to immobilized ICAM-1, and similar results were obtained with each of the two clones (FIG. 8A).
If the constitutive ligand binding activity of mutant K287C/K294C is due to the formation of a disulfide bond between the introduced C287 and C294, disruption of the disulfide bond with a reducing agent would abolish ligand binding ability of the mutant. Accordingly, the transfectants were treated with the reducing agent DTT (10 mM) in L15/FBS containing Mg^2+ and Ca^2+, and the ability of transfectants to bind to ICAM-1 was assessed.
Furthermore, the effect of divalent cations on ligand binding of the isolated I-domains expressed on the surface of K562 transfectants was tested. The binding reactions were performed in HEPES/NaCl/glucose (20 mM HEPES, pH 7.5, 140 mM NaCl, 2 mg/ml glucose) supplemented with 1 mM […], 1 mM Mg^2+, or 1 mM EDTA.
Target sequence in this assay (P05362 28-532): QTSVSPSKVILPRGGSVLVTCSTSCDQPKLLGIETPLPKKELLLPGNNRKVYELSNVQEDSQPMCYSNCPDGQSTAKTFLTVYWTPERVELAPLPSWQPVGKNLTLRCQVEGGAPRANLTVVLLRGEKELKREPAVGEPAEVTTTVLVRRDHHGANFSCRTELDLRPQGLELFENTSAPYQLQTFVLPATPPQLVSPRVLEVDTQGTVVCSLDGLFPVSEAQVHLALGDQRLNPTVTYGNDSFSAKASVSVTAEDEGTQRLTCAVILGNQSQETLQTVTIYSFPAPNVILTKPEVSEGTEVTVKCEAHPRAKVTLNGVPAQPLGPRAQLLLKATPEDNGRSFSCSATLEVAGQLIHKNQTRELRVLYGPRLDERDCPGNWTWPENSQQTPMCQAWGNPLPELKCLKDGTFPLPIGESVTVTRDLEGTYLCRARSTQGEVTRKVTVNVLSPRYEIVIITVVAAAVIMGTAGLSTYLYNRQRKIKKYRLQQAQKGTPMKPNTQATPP

B1: wild-type I-domain: wild-type αL I-domain, soluble recombinant or expressed on K562 surface via PDGFR transmembrane domain (protein)
chain: GNVDLVFLFDGSMSLQPDEFQKILDFMKDVMKKLSNTSYQFAAVQFSTSYKTEFDFSDYVKRKDPDALLKHVKHMLLLTNTFGAINYVATEVFREELGARPDATKVLIIITDGEATDSGNIDAAKDIIRYIIGIGKHFQTKESQETLHKFASKPASEFVKILDTFEKLKDLFTELQKKIY
By Kd is commonly meant the constant that tells how readily two partners part at equilibrium. As to B1, the Kd in the assay with ICAM-1 [1] (Scatchard plots using data at steady states, read-out: KD, interaction of αL I-domains with ICAM-1) amounted to 1350 µM. In addition, the “Kon, interaction of αL I-domains with ICAM-1” value with ICAM-1 [1] (calculated by Koff/KD) is 2220 M⁻¹ s⁻¹. Besides, the “Koff, interaction of αL I-domains with ICAM-1” value with ICAM-1 [1] (curve fitting of dissociation phase, 1:1 binding model) was 3.00 s⁻¹. Besides, in assay [2] (intra-arterial I-domain 10 μg/g), the Fraction transmigration result is reported as “± (.+−.: 0-5%)”. Further, the “Fraction Rolling” value in assay [2] (intra-arterial I-domain 10 μg/g 5 minutes before T-GFP cell injection) is recorded as “+++ (+++: 40-60%)”. Also, in assay [2] (intra-arterial I-domain 10 μg/g, adherent >20 seconds), the Fraction firm adhesion entry is reported as “++ (++: 20-40%)”. Further, the “binding of K562 cells expressing isolated I-domains to immobilized ICAM-1” value with ICAM-1 [3] (I-domain on cell surface via PDGFR transmembrane domain) is “did not bind”. The “effect of Mn2+ or Mg2+ on ligand binding of isolated I-domains” value in the assay with ICAM-1 [3] (K562, 1 mM Mn2+ or Mg2+) is listed as “did not activate ligand binding”. Besides, in the assay with ICAM-1 [3] (K562 transfectants, DTT 10 mM in L15/FBS), the “effect of DTT treatment on binding to ICAM-1” value is reported as “did not affect binding”.
